Substrate in the data set “purified protein”: O=C(O)[C@H](O)[C@@H](O)[C@H](O)[C@H](O)COP(=O)(O)O
Put plainly: purified protein. Conditions: 100 mM HEPES pH 8.0, 37 C, 0.2 mM NADH, enzyme purified and stored with 5 mM MnCl2. Format: biochemical, Caulobacter vibrioides.

Data set [1] concerns the molecule itself. Nature of the data set: SEC; HiLoad 26/60 Superdex 200 prep grade; buffer C (50 mM HEPES/KOH, 300 mM NaCl, 5 mM MnCl, pH 8); isocratic flow 2 ml min^-1; native mass compared with the subunit mass from SDS-PAGE.

From article PMC7099567, “Enzymatic Synthesis of 2-Keto-3-Deoxy-6-Phosphogluconate by the 6-Phosphogluconate-Dehydratase From Caulobacter crescentus” (Frontiers in Bioengineering and Biotechnology, 2020) come the findings set out here.

B1: 6-phosphogluconate dehydratase/Entner-Doudoroff dehydratase (EDD) from Caulobacter crescentus (enzyme, UniProt A0A0H3CB86 1-602, looked up)
chain: MSLNPVIADVTARIVARSKDSRAAYLANMDRAIENQPGRAKLSCANWAHAFAASPGVDKLRALDPNAPNIGIVSAYNDMLSAHQPLEAYPALIKDAARDVGATAQFAGGVPAMCDGVTQGRPGMELSLFSRDVIAMATAVALTHDAFDSALYLGVCDKIVPGLVIGALTFSHLPALFVPAGPMTSGLPNSEKARIRALYAEGKVGREELLAAESASYHGPGTCTFYGTANTNQMLMELMGFHLPGSAFVHPNTPLREALVKESARRVAAVTNKGNEFIPVGRMIDEKSFVNGVVGLMATGGSTNLALHIIAMAAAAGVQLTLEDLDDISKATPLLARVYPNGSADVNHFQAAGGMAFVIRELLKAGLVHEDVQTIAGAGLSLYAKEPVLEDGMLTWRDGAHESLDPAIVRPVSDPFSKEGGLRLMAGNLGRGVMKISAVKPEHHVIEAPCAVFQEQEDFIAAFKRGELDRDVVVVVRFQGPSANGMPELHNLSPSISVLLDRGHKVALVTDGRMSGASGKTPAAIHVTPEAAKGGPLAYVQDGDVIRVNAETGELKIMVDEATLLARTPANVPASKPGFGRELFGWMRSGVGAADAGASVFA
notes: Homodimer by size exclusion chromatography (130 kDa native, 63.2 kDa by SDS-PAGE); also called CcEDD; 6PG dehydratase; source: E. coli BL21 (DE3), pET15b, purified (Ni-TED)
Turning to B1, the Km in “purified protein” was 300 µM. In data set [1], the “stoichiometry N” value was found to be 2.

A word on the Km: it is the substrate concentration at which the rate is half of its maximum. As a reminder, the stoichiometry N is a count of units in the complex or per binding partner.
